# According to US20240317834A1, “COMPOSITIONS AND METHODS FOR NEUROLOGICAL DISEASES” (CODA BIOTHERAPEUTICS, INC., priority 2020, published 2024):
# B1: CODA1027: engineered chimeric LGIC receptor, R101F, L131D in SEQ ID NO: 33 (protein)
# chain: MRCSPGGVWLALAASLLHVSLQGEFQRKLYKELVKNYNPLERPVANDSQPLTVYFSLSLLQIMDVDEKNQVLTTNIWLQMSWTDHYLQWNVSEYPGVKTVFFPDGQIWKPDILLYNSADERFDATFHTNVDVNSSGHCQYLPPGIFKSSCPMDLKNFPMDVQTCKLKFGSWSYGGWSLDLQMQEADISGYIPNGEWDLVGIPGKRSERFYECCKEPYPDVTFTVTMRRRMGYYLIQMYIPSLLIVILSWISFWINMDAAPARVGLGITTVLTMTTQSSGSRASLPKVSYVKAIDIWMAVCLLFVFSALLEYAAVNFVSRQHKELLRFRRKRRHHKSPMLNLFQEDEAGEGRFNFSAYGMGPACLQAKDGISVKGANNSNTTNPPPAPSKSPEEMRKLFIQRAKKIDKISRIGFPMAFLIFNMFYWIIYKIVRREDVHNQ
# modifications: synthetic sequence of chimeric LGIC
# Assays:
# Lenti-X 293T cells = test: YFP fluorescence quenching anion reporter plate reader assay of engineered receptors stimulated with acetylcholine or a non-native ligand; format: cell-based
# Procedure, shortened: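 Lenti-X 293T cells carrying a YFP anion reporter were transiently transfected with channel DNA and assayed the next day in HEPES-buffered ECS at pH 7.2. Ligand (acetylcholine or non-native ligand) was added in NaI-substituted ECS. Percent quench was the mean of the last 10 s relative to the 15 s pre-addition baseline.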
# rat DRG neurons = test: Rheobase shift and evoked action potentials in rat DRG neurons (current clamp); format: cell-based
# Description: Using whole cell manual patch clamp electrophysiology in HEK293 cells, rat DRG neurons and rat hippocampal neurons, the EC50 of the various engineered receptors disclosed herein to Ach and non-native ligands was measured using the Hill equation with peak current measurements from escalating doses of ligand. The rheobase shift was also measured in rat DRG neurons, which reflects the efficacy of the receptors. To calculate the rheobase, first, the amount of current that can produce an action potential was determined. Then the ligand was added, followed by a step wise increase in the current injected up to 700 pA.
# For manual patch clamp experiments, Cells plated on coverslips were visualized at 10× and 40× on an inverted fluorescence microscope (Olympus). Recordings were made with an Axopatch 200B amplifier and Digidata 1550B (Molecular Devices) at RT using 3-6 MOhm glass patch electrodes (Sutter, BF150-86-10). Unless otherwise stated, recordings were made in extracellular solution (ECS) containing: 140 mM sodium chloride, 4 mM potassium chloride, 1 mM magnesium chloride, 2 mM calcium chloride, 10 mM HEPES, and 10 mM D-(+)-glucose (pH=7.3 with sodium hydroxide, osmolarity=305−315 mOsm). An 8-line reservoir (AutoMate Scientific) in combination with an 8-channel zero-dead-volume perfusion pencil (AutoMate Scientific) was used for perfusion. Data was acquired using pClamp software (Molecular Devices). Traces were either analyzed in Clampfit (Molecular Devices) or using custom Python code. Plotting and statistics were performed in GraphPad Prism.
# DRG rheobase experiments were performed in current clamp mode using a potassium-based internal solution containing: 100 mM potassium D-gluconate, 28 mM potassium chloride, 1 mM magnesium chloride hexahydrate, 5 mM magnesium ATP, 10 mM HEPES, and 0.5 mM EGTA (pH=7.2 with potassium hydroxide, osmolarity=290-295 mOsm, calculated liquid junction potential=−13.5 mV). To measure DRG input resistance and rheobase, 500 ms current steps (−200 pA to 700 pA) were applied the membrane in the presence and absence of a compound. No holding current was applied to the membrane for cells included in the final datasets. Data were acquired at 10 kHz, with Bessel filter at 2 kHz and series resistance compensation at 100%. Rheobase was defined as the smallest depolarizing current injection required to cause an action potential to fire in the cell. In a subset of cells, the rheobase was ambiguous, since the action potential appeared to be graded in amplitude. In these cases, a […] of the trace clarified the rheobase. Input resistance was measured from the negative current injections, calculated as the difference in membrane potential at steady state divided by the current injection amplitude and then averaged across the four negative current steps for each recording. Resting membrane potential was measured from the first 100 ms of each sweep, averaged for each recording, and corrected for liquid junction potential. One-way ANOVA with multiple comparisons was used to test for significance of difference in rheobase and input resistance between baseline, drug, and wash conditions.
molecule,measurement,setting,value
B1,YFP fluorescence quenching using CNL001,"Lenti-X 293T cells; 1 nM CNL001, first column",24.049%
same,YFP fluorescence quenching using CNL001,"Lenti-X 293T cells; 1 nM CNL001, second column",36.755%
same,YFP fluorescence quenching using TC-5619/Bradanicline,Lenti-X 293T cells; 1 nM brd,−10.07%
same,YFP fluorescence quenching using TC-5619/Bradanicline,Lenti-X 293T cells; 3 nM brd,−0.8%
same,YFP fluorescence quenching using Varenicline,"Lenti-X 293T cells; 3 nM var, first column",−3.367
same,YFP fluorescence quenching using Varenicline,"Lenti-X 293T cells; 3 nM var, second column",−0.431
same,YFP fluorescence quenching using CNL001,"Lenti-X 293T cells; 10 nM CNL001, first column",52.927%
same,YFP fluorescence quenching using CNL001,"Lenti-X 293T cells; 10 nM CNL001, second column",61.449%
same,YFP fluorescence quenching using TC-5619/Bradanicline,Lenti-X 293T cells; 10 nM brd,1.74%
same,YFP fluorescence quenching using TC-5619/Bradanicline,Lenti-X 293T cells; 30 nM brd,53.95%
same,YFP fluorescence quenching using Facinicline,Lenti-X 293T cells; 30 nM fac,−10.05
same,YFP fluorescence quenching using Varenicline,"Lenti-X 293T cells; 30 nM var, first column",−0.761
same,YFP fluorescence quenching using Varenicline,"Lenti-X 293T cells; 30 nM var, second column",2.989
same,YFP fluorescence quenching using CNL001,"Lenti-X 293T cells; 50 nM CNL001, first column",67.308%
same,YFP fluorescence quenching using CNL001,"Lenti-X 293T cells; 50 nM CNL001, second column",68.77%
same,YFP fluorescence quenching using ABT-126,Lenti-X 293T cells; 50 nM abt,−11.89%
same,YFP fluorescence quenching using CNL001,"Lenti-X 293T cells; 100 nM CNL001, first column",69.049%
same,YFP fluorescence quenching using CNL001,"Lenti-X 293T cells; 100 nM CNL001, second column",71.613%
same,YFP fluorescence quenching using CNL002,Lenti-X 293T cells; 100 nM CNL002,7.75%
same,YFP fluorescence quenching using ABT-126,Lenti-X 293T cells; 100 nM abt,−16.07%
same,YFP fluorescence quenching using AZD-0328,Lenti-X 293T cells; 100 nM azd0328,−4.76%
same,YFP fluorescence quenching using ABT-126,Lenti-X 293T cells; 300 nM abt,−11.21%
same,YFP fluorescence quenching using AZD-0328,Lenti-X 293T cells; 300 nM azd0328,−7.52%
same,YFP fluorescence quenching using TC-5619/Bradanicline,Lenti-X 293T cells; 300 nM brd,76.74%
same,YFP fluorescence quenching using Facinicline,Lenti-X 293T cells; 300 nM fac,−12.54
same,YFP fluorescence quenching using Varenicline,"Lenti-X 293T cells; 300 nM var, first column",2.966
same,YFP fluorescence quenching using Varenicline,"Lenti-X 293T cells; 300 nM var, second column",10.211
same,YFP fluorescence quenching using Varenicline,"Lenti-X 293T cells; 500 nM var, first column",15.278
same,YFP fluorescence quenching using Varenicline,"Lenti-X 293T cells; 500 nM var, second column",20.84
same,YFP fluorescence quenching using CNL001,"Lenti-X 293T cells; 1 uM CNL001, first column",71.811%
same,YFP fluorescence quenching using CNL001,"Lenti-X 293T cells; 1 uM CNL001, second column",69.907%
same,YFP fluorescence quenching using CNL002,Lenti-X 293T cells; 1 uM CNL002,61.97%
same,YFP fluorescence quenching using ABT-126,Lenti-X 293T cells; 1 uM abt,−9.38%
same,YFP fluorescence quenching using TC-6987,Lenti-X 293T cells; 1 uM tc6987,0.88
same,YFP fluorescence quenching using Varenicline,"Lenti-X 293T cells; 1 uM var, first column",37.104
same,YFP fluorescence quenching using Varenicline,"Lenti-X 293T cells; 1 uM var, second column",42.439
same,YFP fluorescence quenching using TC-6987,Lenti-X 293T cells; 10 uM tc6987,56.27
same,YFP fluorescence quenching using CNL002,Lenti-X 293T cells; 30 uM CNL002,65.77%
same,YFP fluorescence quenching using AZD-0328,Lenti-X 293T cells; 30 uM azd0328,74.9%
same,YFP fluorescence quenching using Facinicline,Lenti-X 293T cells; 30 uM fac,70.96
same,YFP fluorescence quenching using TC-6987,Lenti-X 293T cells; 500 uM tc6987,71.3
same,"percent quench of YFP fluorescence, 30 nM TC-6683",Lenti-X 293T cells; TC-6683 30 nM,1.189%
same,"percent quench of YFP fluorescence, 300 nM TC-6683",Lenti-X 293T cells; TC-6683 300 nM,0.939%
same,"percent quench of YFP fluorescence, 3 uM TC-6683",Lenti-X 293T cells; TC-6683 3 uM,1.327%
same,"percent quench of YFP fluorescence, 30 uM TC-6683",Lenti-X 293T cells; TC-6683 30 uM,−0.845%
same,"percent quench of YFP fluorescence, 100 uM TC-6683",Lenti-X 293T cells; TC-6683 100 uM,−3.136%
same,"percent quench of YFP fluorescence, 10 uM ach",Lenti-X 293T cells; acetylcholine 10 uM,−1.62%
same,"percent quench of YFP fluorescence, 50 uM ach",Lenti-X 293T cells; acetylcholine 50 uM,−1.6%
same,"percent quench of YFP fluorescence, 100 uM ach",Lenti-X 293T cells; acetylcholine 100 uM,−2.62%
same,"percent quench of YFP fluorescence, 300 uM ach",Lenti-X 293T cells; acetylcholine 300 uM,−6.12%
same,"percent quench of YFP fluorescence, 500 uM ach",Lenti-X 293T cells; acetylcholine 500 uM,−7.71%
same,"percent quench of YFP fluorescence, 1 mM ach",Lenti-X 293T cells; acetylcholine 1 mM,−5.73%
same,"percent quench of YFP fluorescence, 3 mM ach",Lenti-X 293T cells; acetylcholine 3 mM,33.69%
same,"Rheobase Shift; Rat DRG Neurons, +TC-5619 @ EC90",rat DRG neurons; +TC-5619 @ EC90,638 ± 63 pA
same,"Rheobase Shift; Rat DRG Neurons, Baseline","rat DRG neurons; Baseline, no ligand",100 ± 23 pA
